# Source: the RNAGym collection of RNA variant scans (doi:10.1073/pnas.2313332121)
# Variants at the floor of the assay were thinned out.
# B1: TPR 5TU (parent)
# chain: GGAUCUUCUCGAUCUAACAAAAAAGACAAAUCUGCCACAAAGCUUGAGAGCAUCUUCGGAUGCAGAGGCGGCAGCCUUCGGUGGCGCGAUAGCGCCAACGUUCUCAACUAUGACACGCAAAACGCGUGCUCCGUUGAAUGGAGUUUAUCAUG
# Variants of: B1
# Assay: polymerase ribozyme fitness, log enrichment relative to wild type (log ratio); higher = more active; in vitro selection for triplet polymerase activity
# Procedure, shortened: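 Mutant libraries were PCR-built and transcribed for each subunit of a heterodimeric triplet polymerase ribozyme and selected for one round in triplicate at −7 °C, frozen, before gel excision of extended constructs and streptavidin-bead capture. Input and output libraries were Illumina-sequenced, keeping genotypes with ≥10 input reads and ≥1 read per output. Fitness is a logarithmic ratio of genotype to wild-type enrichment, in base 2, using inverse-variance-weighted replicate averages.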
row,Variant,polymerase ribozyme fitness (log ratio)
1,U15A C87U,-0.632
2,C14G U33C C87A A91C,≤ -4.2
3,C14U C36A A73G G83A G86A,≤ -4.2
4,U13G C18G A22G C54A G100C C116G A120U A147C,≤ -4.2
5,C14U A73G C75G C87A A98G U111G,≤ -4.2
6,U13C A20U G48C C96G,-2.62
7,C14U U45G A47G G48C C69U C76G U109A,≤ -4.2
8,C14U U15A A20G C38U C57U U90C U102G A119G A122C,≤ -4.2
9,U13C C27A C43A G86U,≤ -4.2
10,C14G C57G C87G,≤ -4.2
11,C14G U31G G86C U102G,≤ -4.2
12,U15A A22C C72A C87G G88U G133C,≤ -4.2
13,U13G A49U C57U C87G C118U U139C U151A,≤ -4.2
14,C14U C99A G136A,-2.47
15,U13C U55A C85A C125U,-1.98
16,U13G C14G A30C G80A A137U,≤ -4.2
17,C14G A17C A22U U44A G83C C118A U134C,≤ -4.2
18,C14U G94A C108U A137U,-4.03
19,C14A A20U A26C G84A G141A,≤ -4.2
20,C14A U55G C63G C93U C118U,≤ -4.2
21,C14A A39U C85G G140A,≤ -4.2
22,C14G C54A C85G U127A,≤ -4.2
23,C14G C54U C72U,-3.4
24,U15C C85U G92U G141C U144C,-3.03

row,Variant,polymerase ribozyme fitness (log ratio)
1,U15C C85U,-0.718
2,C14G U55A,-2.86
3,C14G A47C A52G A115C A119G,≤ -4.2
4,C14U A17U C38G A60U,-2.73
5,U15A U55A C99G,-1.2
6,C14A U61A,-3.22
7,C14A A19U U33G C69A C75G C96A A97G A106C G140C,≤ -4.2
8,C14A A22G G86U G140C,≤ -4.2
9,U15A A23U A39C A47U C96G G141U,≤ -4.2
10,U13G C14U A60C G88U A122U U134A,≤ -4.2
11,C14A C18G A41C G42A G59C G68A C95U,≤ -4.2
12,C14A A26G G67A A73U G86C A121U C123G A138C U146A,≤ -4.2
13,C14G C36U C85U G136U A138G,≤ -4.2
14,U13G G59U C85U G94U G112A C116A,≤ -4.2
15,C14G A17C U44A G81A C85U C125A,≤ -4.2
16,U15C G50C U101G C105U,-1.68
17,C14A G59C C85A C99U G141U U146G,≤ -4.2
18,C14G A23U A41U U78C G80C G81U C96U A110U G143U,≤ -4.2
19,C14A C43A C51U C54G C93A U145C A150C,≤ -4.2
20,U13G C32A C93A U127G,≤ -4.2
21,U15C C36A U55A A106U C108U A115G G117U G140A,≤ -4.2
22,U15C C51A A60U C93A C96G G140A,≤ -4.2
23,U13G G84A,-0.636
24,C14U A23U A37C A52G G58C C85G A119C A137U,≤ -4.2

row,Variant,polymerase ribozyme fitness (log ratio)
1,U13C A21U A52C U55G G67U G80A C105U A150C,≤ -4.2
2,U13G A60U G83C C108U,≤ -4.2
3,U15A G42U C87G G94A C99G C125U U148A,≤ -4.2
4,C14U C85A,-2.54
5,U13G U56A A91G,-3.81
6,U15C G86A,0.14
7,C14G A47C A60U G65A,≤ -4.2
8,C14A A49C G59C G62A A91U G100A C114U A137G U146C,≤ -4.2
9,C14G A29U,-3.98
10,U15C A91C G94U C96G,≤ -4.2
11,C14U A22G,-3.07
12,U15C G42U G50U C93G C132A G140A U148C A150U,≤ -4.2
13,U15C C38U G86A C87U C99U,-3.87
14,U13G U82A C96U U130A,-3.83
15,C14G C96U U134C,-2.72
16,U15A G25U A60G G74A C75A A142U,≤ -4.2
17,U15A A28U G34A A47U C96U G117A,≤ -4.2
18,C14U A40U A41U A49U A73G G92A C125U,-4.11
19,C14G A52C C69U U77G G92A,≤ -4.2
20,C14U A91G C116U U134A,≤ -4.2
21,U15A A20U A23G A37G G68C C96U C129G U144A,≤ -4.2
22,C14U C51U A66G C87A C116U U148C,≤ -4.2
23,C14U A39G C93U G143A,≤ -4.2
24,C14U U33G G59C C87U G124U G141C G152U,-4.16

row,Variant,polymerase ribozyme fitness (log ratio)
1,U13G C51U U56A G86U A115U,≤ -4.2
2,C14A U53A C87G,≤ -4.2
3,C14U U15C A23U A41U C85A G124U,≤ -4.2
4,C14G G92A,-4.15
5,C14G G92C,-2.66
6,C14U A89U C93U,-3.88
7,C14A A17U A115G,-3.2
8,U15C G88A,-3.6
9,U13G U53A C85A C95U A98U G141C,≤ -4.2
10,U13G C54U G84U,-2.19
11,C14G U77G G80U C85A,≤ -4.2
12,C14G U45A C79U G88A U104G A113U,-4.17
13,C14U G84C A122G G136A,-3.51
14,U15C A41C C57U C76U C93U,-0.0442
15,U13C A22C U53A C116A,0.349
16,C14G C54G G71A C99A G100A,≤ -4.2
17,C14G C85A,-3.74
18,C14U A16G U56A,-2.11
19,C14U G83A C116A G141A,-3.95
20,C14G A19U C116A,-2.21
21,U15C A49G C116A A138U,-3.99
22,C14U U55G,-1.61
23,U13G C18G C27U A40U A64U,≤ -4.2
24,C14A A17C U31A C57U C96G,-3.28

row,Variant,polymerase ribozyme fitness (log ratio)
1,C14G G50A,-3.35
2,U13G G58C A122C,-1.1
3,C14A A115G,-2.5
4,U15A A142C A147U,-1.65
5,U13C G25A A29C C36G C118A,-4.18
6,U15C A26G U44G C54U C63U C87G U90C,≤ -4.2
7,C14U C32U U61C A91U,≤ -4.2
8,U15A A19C A23U G46C U53G C57A G68A G71A C93G U111G G141U,≤ -4.2
9,U15C U56A C69A G84A G136A,-0.468
10,C14G A19G A20C G117A G124C,-3.94
11,C14G U15C C85U A121C G126A,-0.0533
12,C14U U44A C57A G58C A73U G83C A91U,≤ -4.2
13,C14G U139C,≤ -4.2
14,U15A C51U G58U C69G,-1.91
15,U13G U15A C36A A40C U56A G58A A107U G124U C131A,≤ -4.2
16,C14A C72U,-1.72
17,C14U A37C,-1.79
18,C14G A30U C36A U55A A73C C85U A119G,≤ -4.2
19,C14G C54U A64G A66C U82G A97G G140U,≤ -4.2
20,C14G A16C C51U G94U C125U,-3.93
21,C14A A29U C51A C96G A115C C118A G141A,≤ -4.2
22,C14A A16U G86A C87G,-3.84
23,C14G G50U C87A G112C C123U U148G,≤ -4.2
24,C14A G50A C87A A106U C108G A150C,≤ -4.2

row,Variant,polymerase ribozyme fitness (log ratio)
1,C14A A20G C79A G94C G141A,≤ -4.2
2,C14G C32A U61G A120C,≤ -4.2
3,U15A A17U G65U,≤ -4.2
4,C14U G58U,-0.884
5,C14G G86U,-3.77
6,C14U C75G U101G U135A,≤ -4.2
7,C14U A26G G92C,≤ -4.2
8,C14A A40U C87A G136C,≤ -4.2
9,C14G G80U G84U C132A,≤ -4.2
10,C14G U53G U77G A91U,≤ -4.2
11,U13G C27U C32G U56G C93U,≤ -4.2
12,C14A C72U G81U C95U,-2.42
13,U13C A40G C43U C87U G128C U139A,≤ -4.2
14,U15C A24C C36U A40U C79G C93G G100A C125G U139C,≤ -4.2
15,C14U C96U,-0.908
16,U15A C87A A107U C108A,≤ -4.2
17,C14G U15G A30U A91G,≤ -4.2
18,U13G A49C G152U,≤ -4.2
19,C14G G84A C85G A106G,≤ -4.2
20,U15A C38A A73U G83U G84C,≤ -4.2
21,U15A A20G A26U A39G A47C C79U C103G G140A,≤ -4.2
22,C14U C51U U135C,-3.66
23,U13C A16U U33A C54G G67C G133U U144A,≤ -4.2
24,U13G A16U G42C G84A,≤ -4.2

row,Variant,polymerase ribozyme fitness (log ratio)
1,C14G A26G U44A C99G C103U,≤ -4.2
2,C14A C27G A28G C43U G81A G84U U109G G143A,≤ -4.2
3,U13G A28U A37C A41G C99U C129A U134C A150C,≤ -4.2
4,U15C U56G C63U C95A C96A A106G,-1.5
5,C14A A20U A47U C76U C85A C95U A115U C131G,≤ -4.2
6,C14G A22U A39U,≤ -4.2
7,U15C A17U C51U G83A C123G G152A,-2.38
8,C14U U56G U78C G86U,-4.1
9,U13G A66C G80U G83C U101C U139C,≤ -4.2
10,U15C A52C C85G G94A,0.00508
11,C14G U61A C85U C93A C108U A115U,≤ -4.2
12,C14A A39U A52U C87A C95U C96U G100U C125A,≤ -4.2
13,C14G U56A C96U,-3.43
14,C14A A28G A122U U134G U144G,≤ -4.2
15,C14G G100U,≤ -4.2
16,C14U C76G,≤ -4.2
17,U13G A19U C51U A97U,-2.04
18,U13G G59A,-1.2
19,U13G A37U C76G G84U A107U C123U U139G,≤ -4.2
20,U13C U56A C72U C93A C96U,-3.76
21,C14A A21G U53A C85U,-3.58
22,C14G A28U A29C C32G U44G C63U G83A G86C C105U C108U G143U,≤ -4.2
23,C14G A19C A22C U61A A91U C105G C108G C114U A120G,≤ -4.2
